Assay results: publication PMC3625974 (Structure (London, England : 1993), 2012)

Columns and labels:
[1] = molecular target: isolated vpTorSS sensor domain, GSGS-TorS(51-323) (V. parahaemolyticus); assay: native gel or EMSA + SEC
[2] = molecular target: isolated vpTorSS sensor domain, GSGS-TorS(51-323) (V. parahaemolyticus); assay: AUC
[3] = molecular target: vpTorSS-TorSS dimer: two copies of vpTorSS (51-323) fused via a flexible linker [LN(SG)10A3] (V. parahaemolyticus); assay: AUC
TorS (Escherichia coli) = TorS (Escherichia coli) (UniProt P39453); details: cited from earlier work
TorT (vpTorT) = TorT (vpTorT) (Vibrio parahaemolyticus, UniProt Q87ID2); assay: ITC; type: binding

TorT, sequence (P38683 19-342): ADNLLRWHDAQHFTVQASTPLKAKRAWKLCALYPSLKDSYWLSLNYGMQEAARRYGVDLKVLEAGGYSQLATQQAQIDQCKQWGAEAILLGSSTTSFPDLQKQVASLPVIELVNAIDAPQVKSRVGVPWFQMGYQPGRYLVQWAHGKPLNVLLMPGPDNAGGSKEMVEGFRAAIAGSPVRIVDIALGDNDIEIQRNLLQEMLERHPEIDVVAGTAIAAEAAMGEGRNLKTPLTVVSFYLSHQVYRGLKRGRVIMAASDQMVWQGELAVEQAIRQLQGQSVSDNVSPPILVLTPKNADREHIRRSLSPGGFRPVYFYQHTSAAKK

periplasmic binding protein TorT from V. parahaemolyticus, GSGS-TorT(29-329) (natural protein)
stoichiometry N (TorT per TorSS (2:2)) [1]: 1
stoichiometry N (TorT per TorSS (2:2)) [2]: 1
Kd [3]: 1790 nM

TorT (from UniProt P38683)
Kd (TorS (Escherichia coli)): 10 nM

C[N+](C)(C)[O-] [TMAO, trimethylamine-N-oxide]
Kd (TorT (vpTorT)): 1360 nM
